Results on 4 molecules are retold here after patent US20240390512A1 (Daiichi Sankyo, published 2024).

The labels stand for the following.
T1: cynomolgus monkey CDH6, on cells (cynomolgus monkey, UniProt P55285 54-790 (human entry))
T1 construct: Expressed from pcDNA3.1-cynoCDH6; also called cynoCDH6
T1 sequence: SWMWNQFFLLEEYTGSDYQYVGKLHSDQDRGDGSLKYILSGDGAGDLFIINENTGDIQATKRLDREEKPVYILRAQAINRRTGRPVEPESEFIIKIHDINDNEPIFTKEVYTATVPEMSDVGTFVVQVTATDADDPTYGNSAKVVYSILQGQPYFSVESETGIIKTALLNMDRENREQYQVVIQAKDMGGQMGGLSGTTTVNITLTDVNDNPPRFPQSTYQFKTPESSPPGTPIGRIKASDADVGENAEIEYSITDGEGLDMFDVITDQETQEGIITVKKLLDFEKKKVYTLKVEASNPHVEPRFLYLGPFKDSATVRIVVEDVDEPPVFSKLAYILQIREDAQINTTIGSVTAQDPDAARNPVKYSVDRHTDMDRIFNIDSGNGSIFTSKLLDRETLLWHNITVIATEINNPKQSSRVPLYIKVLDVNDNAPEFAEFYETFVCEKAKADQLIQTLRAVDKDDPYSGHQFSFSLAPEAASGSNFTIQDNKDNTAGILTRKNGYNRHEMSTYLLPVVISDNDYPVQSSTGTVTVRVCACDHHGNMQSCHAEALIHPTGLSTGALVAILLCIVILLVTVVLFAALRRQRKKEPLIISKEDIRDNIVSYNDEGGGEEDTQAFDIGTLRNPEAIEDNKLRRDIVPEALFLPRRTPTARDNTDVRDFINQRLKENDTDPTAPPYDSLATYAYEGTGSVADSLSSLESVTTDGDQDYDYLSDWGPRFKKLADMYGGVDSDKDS

T2: human CDH6 (cadherin-6), full-length, on cells (human, UniProt P55285 54-790)
T2 construct: also called hCDH6; full-length hCDH6
T2 sequence: T1 sequence with H300Y, R457H, G707A

T3: EC3 deletion mutant of human CDH6, on cells (human, UniProt P55285 54-790)
T3 construct: in p3×FLAG-CMV-9; also called EC3-deleted hCDH6
T3 sequence: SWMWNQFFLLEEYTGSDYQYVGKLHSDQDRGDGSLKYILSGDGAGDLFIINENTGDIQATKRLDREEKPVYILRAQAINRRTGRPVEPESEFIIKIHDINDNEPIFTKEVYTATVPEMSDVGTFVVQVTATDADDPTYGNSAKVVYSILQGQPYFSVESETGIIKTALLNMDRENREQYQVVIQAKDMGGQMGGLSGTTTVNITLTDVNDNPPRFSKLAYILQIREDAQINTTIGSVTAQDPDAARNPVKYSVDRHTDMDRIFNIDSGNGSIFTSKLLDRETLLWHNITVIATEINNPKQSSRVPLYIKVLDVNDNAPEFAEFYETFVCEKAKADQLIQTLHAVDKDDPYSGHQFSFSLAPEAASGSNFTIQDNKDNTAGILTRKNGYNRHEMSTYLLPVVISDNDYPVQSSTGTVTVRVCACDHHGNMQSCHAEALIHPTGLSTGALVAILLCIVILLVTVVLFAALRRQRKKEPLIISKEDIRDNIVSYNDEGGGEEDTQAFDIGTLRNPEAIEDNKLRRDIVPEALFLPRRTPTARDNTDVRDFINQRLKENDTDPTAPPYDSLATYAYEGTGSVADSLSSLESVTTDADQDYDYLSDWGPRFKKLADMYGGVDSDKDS

B1: rat anti-human CDH6 monoclonal antibody rG055 (antibody, rat IgG2b, V domains shown)
VH: EVQLQESGPGLVRPSQSLSLSCSVTDYSITSNYWGWIRRFPGNKMEWMGYITYSGYTSYNPSLQSRISITRDTSKNQFFLQLNSVTAEDTATYYCARSINHGGYSYVVDAWGPGASVTVSS
VL: DVQMTHSPSYLAASPGESVSISCKTSKNISNYLVWYQQKPGEAYKLLIYSGSTLQSGTPSRFSGSGSGTDFTLTIRSLEPEDFGLYFCQQYYEKPFTFGSGTKLEIKR
notes: Purified from hybridoma supernatant; also called rG055 antibody
B2: rat anti-human CDH6 monoclonal antibody rG061 (antibody, rat IgG2b, V domains shown)
VH: EVQLQESGPGLVKPSQSLSLTCSVTGYSITTYYWGWIRKFPGNKMEWMGYISYSGRTSYNPSLKSRMSITRDASKNQFFLQLNSVTTDDTATYYCARSPINHGGYWYFDFWGPGTMVTVSS
VL: B1 VL with H6Q, T25A, S26T, N28S, V34A, L46V, F87S, F96L
notes: Purified from hybridoma supernatant; also called rG061 antibody
B3: rat anti-human CDH6 monoclonal antibody rG056 (antibody, rat IgG2b, V domains shown)
VH: EVQLQESGPGLVKPSQSLSLTCSVTDYSITTYFWGWIRKFPGNKMEWMGYMSYRGGTSYNPSLKSRISITRDTSKNQFFLQLNSVTTEDTATYYCARCPNYGGHSLVFDYWGQGVMVTVSS
VL: DVQMTQSPSSLAASPGESVSISCRATKSIGIYLAWYQQKPGKTFKLLIYSGSTLQSGTPSRFSGSGSGTDFTLTIRSLEPEDFGLYFCQQFYENPFTFGSGTKLEIRR
notes: Purified from hybridoma supernatant; also called rG056 antibody
B4: rat anti-human CDH6 monoclonal antibody rG019 (antibody, rat IgG2b, V domains shown)
VH: QVQLQQSGAELVKPGSSVKISCKASGYTFTRNFMHWIKQQPGNGLEWIGWIYCGDGETEYNQKFNGKATLTADRSSSTAYMELSRLTSEDSAVYFCARGVYGGFAGGYFDFWGQGVMVTVSS
VL: DIQMTQSPSLLSASVGDRVTLNCKASQNIYKNLAWYQQKLGEGPKLLIYDANTLQTGIPSRFSGSGSGSDFTLTISSLQPEDVATYFCQQYYSGWAFGGVTNLELKRA
notes: Purified from hybridoma supernatant; also called rG019 antibody

Substitutions are numbered along the chain they refer to.

One assay addresses T1, cynomolgus monkey CDH6, on cells. In words: Cell-ELISA and flow cytometry screening with hybridoma supernatants on transfected cells. (In general: In an ELISA, binding on a coated surface is turned into a signal by an enzyme label.)
On to B1, for which the binding result is “binds”.
Still for that read-out and setting: next, B2: “binds”; B3: “binds”.
On to B4, for which the binding result is “binds”.

Another assay has as its target T2, human CDH6 (cadherin-6), full-length, …. In words: flow cytometry; hCDH6-transfected 293T cells (open line) against untransfected 293T cells (shaded); antibody 10 ng/mL; anti-rat IgG-FITC.
Turning to B1, the binding result is “binds”.
B2: the binding result is “binds”.
Regarding B3, the binding result is “binds”.
Take B4: the binding result is reported as “binds”.

In the next assay the target is T3, EC3 deletion mutant of human CDH6, on …. In words: flow cytometry; 293α cells transfected with EC3-deleted hCDH6 (open line) against untransfected 293α cells (shaded); anti-rat IgG-FITC.
As to B1, the binding result is on record as “no binding (tested: 20 nM)”.
For the molecule B2, the binding result is given as “no binding (tested: 20 nM)”.
Take B3: the binding result is “no binding (tested: 20 nM)”.
Take B4: the binding result was “no binding (tested: 20 nM)”.
